This assay deals with hANGPTL3(17-460)-His (human) (UniProt Q9Y5C1). Kind of assay: Biacore cross-competition, 25C; first antibody at 25 µg/ml on captured antigen. For orientation: Surface plasmon resonance follows binding to a sensor surface in real time, without labels.
hANGPTL3(17-460)-His (human), sequence (Q9Y5C1 other isoform, or with tags, fused parts or gaps): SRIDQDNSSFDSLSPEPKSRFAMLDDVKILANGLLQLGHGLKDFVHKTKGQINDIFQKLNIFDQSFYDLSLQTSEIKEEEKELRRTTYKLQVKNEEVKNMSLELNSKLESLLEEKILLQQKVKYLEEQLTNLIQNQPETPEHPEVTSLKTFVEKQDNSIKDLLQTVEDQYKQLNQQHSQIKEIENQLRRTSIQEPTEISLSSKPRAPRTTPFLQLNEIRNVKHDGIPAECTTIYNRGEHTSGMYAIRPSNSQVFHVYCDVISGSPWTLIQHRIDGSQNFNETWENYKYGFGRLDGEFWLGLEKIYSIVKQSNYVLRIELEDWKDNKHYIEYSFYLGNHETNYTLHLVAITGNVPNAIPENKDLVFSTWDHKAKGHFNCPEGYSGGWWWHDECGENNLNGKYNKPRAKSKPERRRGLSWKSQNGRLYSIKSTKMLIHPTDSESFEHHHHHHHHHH

Negative Control (Table 8) (antibody): the mAb1 binding response (RU) came to 81 RU.

The values above are taken from patent US20150197564A1.
